Test results published in patent publication US7815907B2, “Antibodies to insulin-like growth factor I receptor” (Amgen Fremont Inc., priority 2001, dated 2010).

How the values were obtained:
IGF-IR [1] = target: T1, IGF-IR (Homo sapiens, UniProt P08069); assay: IGF-IR levels in 3T3/IGF-IR tumors by western blot after antibody and/or adriamycin; format: in vivo, nude mice; set-up: expressed in transfected cells; host or cells: NIH-3T3 (mouse fibroblasts); details: 72 hours after single 250 μg 2.13.2 i.p. or 7.5 mg/kg adriamycin i.v.
Description: Tumors were induced in nude mice as described in Example IX. Mice with established subcutaneous tumors of approximately 400 mm^3 were treated with a single injection of 250 μg 2.13.2 antibody (i.p.) or with 7.5 mg/kg adriamycin (i.v.), either as single agents or in combination, as described in Example IX. 72 hours after administration of the agents, tumors were extracted as described in Example VIII, and equal amounts of the tumor extracts were subjected to sodium […] polyacrylamide gel electrophoresis (SDS PAGE) and western blot analysis using the anti-IGF-IR antibody SC-713 (Santa Cruz). […] Each lane represents equal amounts of protein from individual tumors from individual mice.

[2] = target: T2, extracellular domain of IGF-IR (Homo sapiens, UniProt P08069); assay: BIAcore affinity measurement, Protocol 1; format: binding; details: BIAcore 3000; antibody captured on protein-A, IGF-IR extracellular domain injected
T2 construct: Different concentrations of the extracellular domain of IGF-IR were injected on the sensorchip
Description: We performed affinity measures of purified antibodies by surface plasmon resonance using the BIAcore 3000 instrument, following the manufacturer's protocols.
To perform kinetic analyses, protein-A was immobilized on the sensorchip surfaces of the BIAcore. The sensorchip was then used to capture the anti-IGF-IR antibodies of the present invention. Different concentrations of the extracellular domain of IGF-IR were injected on the sensorchip and the binding and dissociation kinetics of the interactions between the anti-IGF-IR antibodies and the extracellular domain of IGF-IR were analyzed. The data were evaluated with global fit Langmuir 1:1, using baseline drift models available on the BIAevaluation software provided by BIAcore.

IGF-IR from the marmoset = assay: Species crossreactivity by immunoprecipitation/Western blot; format: binding; details: immunoprecipitation, antibody 1 μg/ml
Description: (§1) To perform immunoprecipitation experiments, we plated cells in DMEM high glucose media supplemented with L-glutamine (0.29 mg/ml), 10% heat-inactivated FBS, and 500 μg/ml each of geneticin, penicillin and streptomycin to 50% confluence in T25 flasks. We then added 100 μl of an antibody of the invention in Hank's buffered saline solution (HBSS; Gibco BRL) at a concentration of 1 μg/ml. We incubated the plates for 30 minutes at 37° C. in an incubator and then stimulated the cells with IGF-I at 100 ng/ml for 10 minutes at room temperature. We lysed the cells in RIPA buffer (Harlow and Lane, supra) and immunoprecipitated IGF-IR with 2 μg of pan-specific SC-713 anti-IGF-IR antibody (Santa Cruz) plus protein A agarose beads for 1 hour at 4° C. We pelleted the beads and wash three times with PBS/T (PBS+0.1% Tween-20) and then boiled the beads in 40 μl Laemmli buffer containing 5% βME.
(§2) The samples prepared as described above were then analyzed by Western blot. We loaded 12 μl of each sample per lane on 4-10% gradient Novex™ gels run with 1×MES buffer (Novex™). Gels were run at 150V for 1 hour or at 200V for approximately 30 minutes. We then transferred the gel to a membrane in Novex™ transfer buffer with 10% methanol either overnight at 100 mA or for 1-1.5 hours at 250 mA. We then allowed the membrane to dry completely and blocked at room temperature with TBS (Tris-buffered saline pH 8.0) containing Superblock (Pierce Chemical Co.). We added the IGF-IR blotting antibody SC713 (Santa Cruz) to detect immunoprecipitated IGF-IR.

Rhesus IGF-IR = assay: as above; format: binding; details: immunoprecipitation, antibody 1 μg/ml
Description: as §1, §2

canine IGF-IR = assay: as above; format: binding; details: immunoprecipitation, antibody 1 μg/ml
Description: as §1, §2

guinea pig IGF-IR = assay: as above; format: binding; details: immunoprecipitation, antibody 1 μg/ml
Description: as §1, §2

rabbit IGF-IR = assay: as above; format: binding; details: immunoprecipitation, antibody 1 μg/ml
Description: as §1, §2

COS7 IGF-IR = assay: as above; format: binding, old world monkey; details: immunoprecipitation, antibody 1 μg/ml
Description: as §1
(§3) The samples prepared as described above were then analyzed by Western blot. We loaded 12 μl of each sample per lane on 4-10% gradient Novex™ gels run with 1×MES buffer (Novex™). Gels were run at 150V for 1 hour or at 200V for approximately 30 minutes. We then transferred the gel to a membrane in Novex™ transfer buffer with 10% methanol either overnight at 100 mA or for 1-1.5 hours at 250 mA. […]

IGF-IR [3] = target: T1, IGF-IR; assay: as above; format: binding; set-up: on cells from a variety of animals; endogenous in cells; details: immunoprecipitation, antibody 1 μg/ml
Description: as §1, §3

[4] = target: T3, extracellular domain (ECD) of IGF-IR (Homo sapiens, UniProt P08069); assay: BIAcore competition (epitope mapping); format: binding; details: first antibody bound under saturating conditions
T3 construct: Different concentrations of the extracellular domain of IGF-IR were injected on the sensorchip
Description: We conducted BIAcore competition studies to determine whether the antibodies of this invention bind to the same or distinct site on the IGF-IR molecule. We bound the extracellular domain (ECD) of IGF-IR to a BIAcore sensorchip as described above in Example II. We bound a first antibody of the invention to this sensorchip-bound IGF-IR under saturating conditions. We then measured the ability of subsequent secondary antibodies of the invention to compete with the primary antibody for binding to IGF-IR.

How did the “IGF-IR levels in tumors, single agent” value (IGF-IR [1]) turn out when `COc1cccc2c1C(=O)c1c(O)c3c(c(O)c1C2=O)C[C@@](O)(C(=O)CO)C[C@@H]3O[C@H]1C[C@H](N)[C@H](O)[C@H](C)O1` [adriamycin, reference compound] was run?
The value was “little effect on IGF-IR levels”.

B1: 2.12.1: human IgG2κ monoclonal antibody specific for IGF-IR from hybridoma 2.12.1 (ATCC PTA-2792) (antibody)
heavy: QAQLVESGGGLVKPGGSLRLSCAASGFTFSDYYMSWIRQAPGKGLEWVSYISSSGSTRDYADSVKGRFTISRDNAKNSLYLQMNSLRAEDTAVYYCVRDGVETTFYYYYYGMDVWGQGTTVTVSSASTKGPSVFPLAPCSRSTSESTAALGCLVKDYFPEPVTVSWNSGALTSGVHTFPAVLQSSGLYSLSSVVTVPSSNFGTQTYTCNVDHKPSNTKVDKTVERKCCVECPPCPAPPVAGPSVFLFPPKPKDTLMISRTPEVTCVVVDVSHEDPEVQFNWYVDGVEVHNAKTKPREEQFNSTFRVVSVLTVVHQDWLNGKEYKCKVSNKGLPAPIEKTISKTKGQPREPQVYTLPPSREEMTKNQVSLTCLVKGFYPSDIAVEWESNGQPENNYKTTPPMLDSDGSFFLYSKLTVDKSRWQQGNVFSCSVMHEALHNHYTQKSLSLSPGK
light: DIQMTQSPSSLSASVGDRVTFTCRASQDIRRDLGWYQQKPGKAPKRLIYAASRLQSGVPSRFSGSGSGTEFTLTISSLQPEDFATYYCLQHNNYPRTFGQGTEVEIIRTVAAPSVFIFPPSDEQLKSGTASVVCLLNNFYPREAKVQWKVDNALQSGNSQESVTEQDSKDSTYSLSSTLTLSKADYEKHKVYACEVTHQGLSSPVTKSFNRGEC
Which Kd [2] does the source give for B1 here?
Its Kd is 7.37 nM.

And the “binding to marmoset IGF-IR” value (IGF-IR from the marmoset)?
The value was “not”.

What about the “binding to Rhesus IGF-IR” value (Rhesus IGF-IR) of the same molecule?
The value was “able to bind”.

And the “binding to canine IGF-IR” value (canine IGF-IR)?
The value was “not”.

What about the “binding to guinea pig IGF-IR” value (guinea pig IGF-IR) of the same molecule?
Its value is “not”.

What about the “binding to rabbit IGF-IR” value (rabbit IGF-IR) of the same molecule?
Its value is “not”.

What about the “binding to COS7 IGF-IR” value (COS7 IGF-IR) of the same molecule?
The value was “able to bind”.

What about the “binding to human IGF-IR” value (IGF-IR [3]) of the same molecule?
Its value is “able to bind”.

B2: 4.17.3: human IgG2κ monoclonal antibody specific for IGF-IR from hybridoma 4.17.3 (ATCC PTA-2793); named as activating antibody (antibody, V domains shown)
VH: PGLVKPSETLSLTCTVSGGSISSYYWSWIRQPPGKGLEWIGYIYYSGSTNYNPSLKSRVTISVDTSKNQFSLKLSSVTAADTAVYYCARTYSSSFYYYGMDVWGQGTTVTVSS
VL: GDRVTITCRASQSISTFLNWYQQKPGKAPKLLIHVASSLQGGVPSRFSGSGSGTDFTLTISSLQPEDFATYYCQQSYNAPLTFGGGTKVEIK
B2 was tested. Which Kd [2] did it give?
The Kd was 13 nM.

B3: 2.14.3: human IgG2κ monoclonal antibody specific for IGF-IR from hybridoma 2.14.3 (ATCC PTA-2790) (antibody, V domains shown)
VH: GPGLVKPSETLSLTCTVSGGSISNYYWSWIRQPAGKGLEWIGRIYTSGSPNYNPSLKSRVTMSVDTSKNQFSLKLNSVTAADTAVYYCAVTIFGVVIIFDYWGQGTLVTVSS
VL: SSLSASVGDRVTFTCRASQDIRRDLGWYQQKPGKAPKRLIYAASRLQSGVPSRFSGSGSGTEFTLTISSLQPEDFATYYCLQHNNYPRTFGQGTEVEIIR
B3 was tested. Which Kd [2] did it give?
The Kd was 0.641 nM.

And the “binding site on IGF-IR (competition between antibodies)” value [4]?
Its value is “bind to sites on IGF-IR that are different”.
